# In the nanobody polyreactivity screen of Harvey et al. (2022):
# Assay: yeast display, Sf9 membrane polyspecificity reagent, FACS + sequencing; frameworks hold sequencing errors
# Summary of the method: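 Genes from sorted yeast were amplified by colony PCR, read by MiSeq 2 × 250 sequencing and filtered on CDR length. These cells carried a synthetic nanobody library in Saccharomyces cerevisiae BJ5465 and were sorted by FACS into low and high (top ~1%) gates on anti-HA and streptavidin fluorescence. Polyreactivity is labelled according to the gate of origin.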
row,Sequence,polyreactivity (PSR sort gate)
1,QVQLVESGGGLVQAGGTLRLSCAASGSTFLINAMGWYRQAPGKERELVAAISWGGGSTYYADSVKGRFTISRDNGKNSVDLQMNRLTPEDTAVYYCAARYWYRVDYWGQGTQVTVSS,high polyreactivity
2,QVQLVESGGGLVQAGGSLRLSCAASGRTFARNAMGRYRQAPVKERELVAVISKGGSRTYYADSVKGRFTISRDNEKNTVYLQMNSLKPEDTAVYYCAARHYVTRDESYDYWGQVTQVTVSS,high polyreactivity
3,QVQLVESGGGLVQAGGSLRLSCAASGSTFLRYVMGWYRQAPGKERELVAAIDSGGSTHYADSVKGRFTISRDNAKNTVYLQMNSLKPEDTAVYYCNVDVSSDDWYPSTADFDYWGQGTQVTVSS,high polyreactivity
4,QVQLVESGGGLVQAGASLRLSCAPSASIFSYNAMGWYSQAPGKERELVAAIDWSGGSTYYADSVKGRFTISRDNAKNTVYLQMNSLKPEDTEVYYCNAVGVFYYSYHYHQSDYWGQGTQVTVSS,low polyreactivity
5,QVQLVESGGGLVQAGGSLRLSCAASGLIFAHYAMGWYRQAPGTERELVAGITSGGSTNYADSVKGRFTISRDNAKNTVYLQMNSLKPEDTAVYYCNADRAGFLGFYLYDYWGQGTQVTVSS,low polyreactivity
6,QVQLVESGGGLVQAGGSLRLSCAASGSTFQLNAMGWYRQAPGKERELVAAISVRGGSTYYADSVKGRFTISRDTAKNTVYLQMHSLKPEETAVYYCATDSLYFLFAGDAVVRRPSYYWGQGTQVTVSS,high polyreactivity
7,QVQLVESGGGLVQAGGSLRLSCAASGITFDWNAMGWYRQAPGKEREFVASISRGSGGTYYADSVKGRFTISRDNAKNTVYLQMNSLKPEDTAVYYCAAAVGNTDREYDYWGQGTQVTVSS,low polyreactivity
8,QVQLVESGGGLVQAGGSLRLSCAASGRTFPYYAMGWYRQAPGKERELVAAITTNDGDTYYADSVKGRFTISRDNAKNTVYLQMNSLKPEDTAVYYCAADSGSTSEYEYWGQGTQVTVSS,low polyreactivity
9,QVQLVESGGGLVQAGGSLSLSCAASGRTFAPYAMGWYRQAPGKEREFVAGITWSSSSTYADSVKGRFTISRDNAKITVYFQMNSLKPEDPAVYYCAASHAKGGNRHYYWGQGTQVTVSS,high polyreactivity
10,QVQLVESGGGLVQAGGSLRLSCAASGYIFPAYAMGWYRQAPGKERELVAAISWSTGSTYYADSVKGRFTISRDNAKNTVYLQMNSLKPEDTAVYYCAAGRPRRVPDHWYIYYYWGQGTQVTVSS,low polyreactivity
11,QDQLVESGGGLVQAGGSLRLSCAASGITFWYYAMGWYRQAPGKERELVAAISQSGGSTFYADSVKGRFTISRDNAKNTVYLQMNRLKPEVTAVYYCATGFFRYLAKFKTYRYDYWGQGTQVTVSS,high polyreactivity
12,QVQLVESGGGLVQAGGSLRLSCAASGSIFVSYAMGWYRQAPGKERELVAAITVSGGSTYYADSVKGRFTISRDNAKNTVYLQMNSLKPEDTAVYYCAADSWDDWVVEFYYWGQGTQVTVSS,low polyreactivity
13,QVQLVESGGGLVQAGGSLRLSCAASGSIFAYYAMGWYRQAPGKERELVAAISRRGGSTYYADSVKGRFTISRDNAKNTGYLQMNSLQPEDTAVYYCAADIGPRYDSWGLGTQVTVSS,high polyreactivity
14,QVQLVESGGGLVQAGGSLRLSCAASGSTFYWNGMGWYRQAPGKERELVAAITKSGSRTYYADSVKGRFTISRDNAKNTVYLQMNSLKPEDTAVYYCAAVNYIYTGGGTYYYWGQGTQVTVSS,high polyreactivity
15,QVQLVESGGGLVQAGGSLRLSCAASGRNFSRYAMGWYRQAPGKERELVAAISRRGGSTYYADSVKGRFTISRDNAKNTVYLQMNSLKPEDTAVYFCAKYPSAYVDSDVTYDMDYWGQGTQVTVSS,low polyreactivity
16,QVQLVESGGGLVQAGGSLRLSCAASGSIGVNAMGWYRQAPGKERELVATISNSGGSTYYADSVKGRFTISRDNAKNTVYLQINSLKPEDTAVYYCAVAVTSYSSKKLYYWGQGTQVTVSS,low polyreactivity
17,QDQLVESGGGLVQAGGSLRLSCAASGSLFDLYAMGWYRQAPGKERELVAAISWSDSRTYYADSVKGRFTISRDNAKNTVYLQMNSLKPEDTAVYYCAADYRYPDNYGGYDYWGQGTQVTVSS,low polyreactivity
18,QVQLVESGGCLVQAGGSLRLSCAASGYIFSGYAMGWYRQAPGKERELVAAISSNGGSTYYADSVKGRFTISRDNAKNTVYLPMNSMKPEDTAVYYCKRGLAARVGRVDYWGQGTHVTVSS,low polyreactivity
19,QVQLVESGGGLVQAGGSLRLSCAASGSIFKSYAMGWYRQAPGKERELVAAITWRSGRTYYADSVKGRFTISRDNAKNTVYLQMTSLKPEDTAVYYCAADDTSYYIYSYDYWGQGTQVTVSS,low polyreactivity
20,QVQLVESGGGLVQAGGSLRLSCAASGRIFVINAMGWYRQAPGKERELVAAISSSGGSTSYADSVKGRFTISRDNAKNTVYLQMNSLKPEDTAVYYCAAKPRVRRVDGYYWGQGSQVTVSS,high polyreactivity
21,QVQLVESGGGLVQAGGSLRLSCADSGITFVRNAMGWYIHAPGKERECVAAISGSGVSTYADSVKGRFTISRDNAKNTVYLQMNILKPEDTAVYYCNTDEWYHFYHGAHKYDYWGQATQVTVSS,low polyreactivity
22,QVQLVESGGGLVQAGGSLRLSCAASGSTFSNAMGWYREAPGKERELVAAITNRGGSTYYADSVKGRFTISRDNAKNTVYLQMNSLKPEDTAVYYCAAAGIPESWYQERDYWGQGTQVTVSS,low polyreactivity
